{"source": "patent US9260754B2", "about": "“Connexin mutation detection for lymphatic variation and disease” (University of Pittsburgh—Of the Commonwealth System of …, priority 2010, dated 2016)", "key": {"HeLa cells": {"test_system": "HeLa cells", "test": "Wound assay (proliferation/migration) in confluent transfected HeLa cells", "type": "cell-based, human", "conditions": "for wound assay: fraction of original wound in HeLa cell monolayer after 24 hrs, mean ± SEM", "description": "The wound assay, a measure of proliferation/migration, was performed using differential interference contrast time lapse of over 24 hrs using confluent transfected HeLa cells. Analysis was done using TScratch (Geback T, et al. TScratch: a novel and simple software tool for automated analysis of monolayer wound healing assays. Biotechniques 2009; 46:265-74), mean±SEM of at least 10 positions along wound; the scrape width was normalized to the first image for each position. In all cases a two tailed student's T test was applied with p<0.05 considered significant."}, "HeLa cell pairs": {"test_system": "HeLa cell pairs", "test": "Dual whole cell patch clamp recording of coupling current in transfected HeLa cell pairs", "type": "cell-based, human", "conditions": "for elect coupling: Table 3 (Example 2); for elect coupling / electrical coupling: HeLa cell pairs, 100 mV step, mean ± SEM; for electrical coupling: Table 6 (Example 4); for electrical coupling / functional channels in HeLa cell pairs (in words): transfected HeLa cell pairs, voltage step protocol −100 to +100 mV", "description": "Coupling currents were recorded using simultaneous double whole-cell patch clamp recordings from isolated pairs of cells that were in contact with one another (determined visually) as previously described. Briefly, the pipette solution consisted of (mM): 130 CsCl, 10 EGTA, 10 HEPES, 3 Mg-ATP, 2 Na-ATP, 0.5 CaCl2, pH 7.3. The culture was bathed in a solution consisting of (mM): 140 NaCl, 5 HEPES, 5 glucose, 4 KCl, 2 CsCl, 2 CaCl2, 2 pyruvate, 1 BaCl2, pH 7.3. Transfected HeLas undergo electrophysiologic analysis in a blinded manner. Pairs of cells were chosen for study only if both expressed the GFP marker indicative of successful transfections; both stable and transient transfectants were analyzed. Patch pipettes were fabricated from borosilicate glass, and coupling currents were amplified by Axopatch 200A amplifiers, filtered at 1 KHz, and digitized at 5 KHz for subsequent analysis using pClamp software (Axon Instruments/Molecular Devices; Sunnyvale, Calif.). All experiments were carried out at room temperature (22° C.). Coupling current was quantified by measuring the peak current recorded in the pair when the neighboring cell received a 100 mV step membrane potential change (in both positive and negative directions). Step changes in membrane potential were delivered to each cell in the pair in sequence and the average current recorded in the neighboring cell was determined and divided by 100 to generate coupling current expressed in pA/mV. Means±SEM were calculated and statistical significance using a one-way analysis of variance and Tukey's post-hoc test, p<0.05.\nCoupling current is quantified by measuring the peak current recorded in the pair when the neighboring cell receives a 100 mV step membrane potential change (in both positive and negative directions). Step changes in membrane potential are delivered to each cell in the pair in sequence and the average current recorded in the neighboring cell determined and divided by 100 to generate coupling current expressed in pA/mV (FIG. 6C). Replicate measurements (n=3-6) are made on at least two different days. […] The untransfected HeLa cell pairs also show minimal channel function, as predicted.\nElectrophysiologic characteristics of GJIC were measured between HeLa cell pairs transfected with the mutant constructs (as indicated by EGFP expression) by dual whole cell patch clamp recording. All experiments were carried out in a blinded manner. Coupling current is quantified by measuring the peak current recorded in the pair when the neighboring cell receives a 100 mV step membrane potential change (in both positive and negative directions). Step changes in membrane potential are delivered to each cell in the pair in sequence and the average current recorded in the neighboring cell determined and divided by 100 to generate coupling current expressed in pA/mV. Untransfected HeLa cells and cells transfected with empty vector (i.e., no hCx47) were used as additional controls."}, "[1]": {"test_system": "Adult human dermal lymphatic microvascular endothelial cells", "test": "Lucifer yellow microinjection dye spread in lymphatic endothelial cells expressing mutant constructs", "type": "cell-based", "conditions": "Dye spread to tiers of LECs after 2 min; Lucifer yellow microinjection; mean ± SEM", "description": "Adult human dermal lymphatic microvascular endothelial cells were cultured in EGM™-2 MV (both from Lonza). Cells were electroporated with 2 μg cDNA of the EGFP tagged mutant constructs and then selected with G418 as described above. Cells were microinjected using a combination (1:4 ratio) of 70 kd Texas Red dextran (Invitrogen) to mark injected cell for reference and Lucifer yellow, a known gap junction permeable dye (m.w. 443, −2 charge), to assess change in extent of spread (Abbaci M, et al. Advantages and limitations of commonly used methods to assay the molecular permeability of gap junctional intercellular communication. Biotechniques 2008; 45:33-52, 6-62). All cells were injected using constant conditions and cells were scored for dye spread in tiers from reference cell, using constant exposure time and thresholding, and were imaged using a Nikon TE2000 with temperature controlled motorized stage and Qlmaging Retiga CCD camera. Images were obtained using differential interference contrast (DIC) and standard filters for EGFP (identify expression of mutation), DAPI (for Lucifer yellow) and dsRed (for dextran) preinjection, immediately post-injection and 2 min after injection. Results were calculated as mean SEM and statistical significance was determined in comparison to WT-hCx47-EGFP expressing cells using a Mann-Whitney Test."}}, "note": "Entries after “also recorded” stand apart in the source; their conditions may differ."}
{"molecule": "WT-hCx47: human wild type Cx47 construct in bicistronic pIRES2-EGFP vector, expressed in HeLa cells or LECs (protein, UniProt Q5T442 1-439, looked up) Gap junction gamma-2 protein: MTNMSWSFLTRLLEEIHNHSTFVGKVWLTVLVVFRIVLTAVGGEAIYSDEQAKFTCNTRQPGCDNVCYDAFAPLSHVRFWVFQIVVISTPSVMYLGYAVHRLARASEQERRRALRRRPGPRRAPRAHLPPPHAGWPEPADLGEEEPMLGLGEEEEEEETGAAEGAGEEAEEAGAEEACTKAVGADGKAAGTPGPTGQHDGRRRIQREGLMRVYVAQLVARAAFEVAFLVGQYLLYGFEVRPFFPCSRQPCPHVVDCFVSRPTEKTVFLLVMYVVSCLCLLLNLCEMAHLGLGSAQDAVRGRRGPPASAPAPAPRPPPCAFPAAAAGLACPPDYSLVVRAAERARAHDQNLANLALQALRDGAAAGDRDRDSSPCVGLPAASRGPPRAGAPASRTGSATSAGTVGEQGRPGTHERPGAKPRAGSEKGSASSRDGKTTVWI", "values": [{"measurement": "wound assay", "setting": "HeLa cells", "result": 0.72}, {"measurement": "elect coupling", "setting": "HeLa cell pairs", "result": 31.6, "unit": "pA/mV"}, {"measurement": "electrical coupling", "setting": "HeLa cell pairs", "result": 35.9, "unit": "pA/mV"}, {"measurement": "electrical coupling / functional channels in HeLa cell pairs (in words)", "setting": "HeLa cell pairs", "result": "show evidence of voltage-dependent gating"}, {"measurement": "electrical coupling / functional channels in HeLa cell pairs (in words)", "setting": "HeLa cell pairs; listed as WT hCx47", "result": "well coupled"}, {"measurement": "electrical coupling / functional channels in HeLa cell pairs (in words)", "setting": "HeLa cell pairs; listed as WT-hCX47-EGFP", "result": "well coupled"}, {"measurement": "LEC spread", "setting": "[1]", "result": 1.4, "unit": "tiers"}]}
{"molecule": "G146S: Cx47 missense mutant G146S (436G>A), intracellular loop, construct expressed in HeLa cells or LECs (protein, listed as Homo sapiens) MSWSFLTRLLEEIHNHSTFVGKVWLTVLVVFRIVLTAVGGEAIYSDEQAKFTCNTRQPGCDNVCYDAFAPLSHVRFWVFQIVVISTPSVMYLGYAVHRLARASEQERRRALRRRPGPRRAPRAHLPPPHAGWPEPADLGEEEPMLSLGEEEEEEETGAAEGAGEEAEEAGAEEACTKAVGADGKAAGTPGPTGQHDGRRRIQREGLMRVYVAQLVARAAFEVAFLVGQYLLYGFEVRPFFPCSRQPCPHVVDCFVSRPTEKTVFLLVMYVVSCLCLLLNLCEMAHLGLGSAQDAVRGRRGPPASAPAPAPRPPPCAFPAAAAGLACPPDYSLVVRAAERARAHDQNLANLALQALRDGAAAGDRDRDSSPCVGLPAASRGPPRAGAPASRTGSATSAGTVGEQGRPGTHERPGAKPRAGSEKGSASSRDGKTTVWI", "values": [{"measurement": "wound closure compared to WT-hCx47-EGFP transfected cells (in words)", "setting": "HeLa cells; HeLa cells, cell scratch assay", "result": "faster wound closure; also recorded: more rapid closure"}, {"measurement": "wound assay", "setting": "HeLa cells", "result": 0.62}, {"measurement": "elect coupling", "setting": "HeLa cell pairs", "result": 16.2, "unit": "pA/mV"}, {"measurement": "electrical coupling", "setting": "HeLa cell pairs", "result": 32.4, "unit": "pA/mV"}, {"measurement": "electrical coupling / functional channels in HeLa cell pairs (in words)", "setting": "HeLa cell pairs", "result": "well coupled"}, {"measurement": "LEC spread", "setting": "[1]", "result": 2.0, "unit": "tiers"}]}
